Laboratory results reported in ChEMBL document CHEMBL1143079, “Designing better coumarin-based fluorogenic substrates for PTP1B” (Bioorg Med Chem Lett, 2008).

Legend:
[1] = substrate: COC(=O)Cc1cc(=O)oc2cc(OP(=O)(O)O)ccc12
[2] = substrate: COC(=O)[C@H](Cc1ccc(OP(=O)(O)O)cc1)NC(=O)Cc1cc(=O)oc2cc(OP(=O)(O)O)ccc12
[3] = substrate: NC(=O)Cc1cc(=O)oc2cc(OP(=O)(O)O)ccc12
[4] = substrate: NC(=O)[C@H](Cc1ccc(OP(=O)(O)O)cc1)NC(=O)Cc1cc(=O)oc2cc(OP(=O)(O)O)ccc12
[5] = substrate: O=C(Cc1cc(=O)oc2cc(OP(=O)(O)O)ccc12)NCCc1ccc(O)cc1
[6] = substrate: O=C(Cc1cc(=O)oc2cc(OP(=O)(O)O)ccc12)NCCc1ccc(OP(=O)(O)O)cc1
[7] = substrate: O=C(Cc1cc(=O)oc2cc(OP(=O)(O)O)ccc12)NCc1ccc(OP(=O)(O)O)cc1
[8] = substrate: O=C(Cc1cc(=O)oc2cc(OP(=O)(O)O)ccc12)OCc1ccccc1
[9] = substrate: O=C(O)CCNC(=O)Cc1cc(=O)oc2cc(OP(=O)(O)O)ccc12

B1: Tyrosine-protein phosphatase non-receptor type 1 (Homo sapiens), P18031 (protein)
chain: MEMEKEFEQIDKSGSWAAIYQDIRHEASDFPCRVAKLPKNKNRNRYRDVSPFDHSRIKLHQEDNDYINASLIKMEEAQRSYILTQGPLPNTCGHFWEMVWEQKSRGVVMLNRVMEKGSLKCAQYWPQKEEKEMIFEDTNLKLTLISEDIKSYYTVRQLELENLTTQETREILHFHYTTWPDFGVPESPASFLNFLFKVRESGSLSPEHGPVVVHCSAGIGRSGTFCLADTCLLLMDKRKDPSSVDIKKVLLEMRKFRMGLIQTADQLRFSYLAVIEGAKFIMGDSSVQDQWKELSHEDLEPPPEHIPPPPRPPKRILEPHNGKCREFFPNHQWVKEETQEDKDCPIKEEKGSPLNAAPYGIESMSQDTEVRSRVVGGSLRGAQAASPAKGEPSLPEKDEDHALSYWKPFLVNMCVATVLTAGAYLCYRFLFNSNT
B1 was tested, and the Km [1] was 147 µM, the kcat [1] was 8.2 s⁻¹ and the Km [2] was 82 µM. It also gave a kcat [2] of 3.4 s⁻¹, a Km [3] of 224 µM and a kcat [3] of 5 s⁻¹. For the same protein, the Km [4] was 149 µM, the kcat [4] was 3.2 s⁻¹ and the kcat [5] was 4.8 s⁻¹. For the same protein, the Km [6] was 38 µM, the kcat [6] was 7.1 s⁻¹ and the Km [7] was 25 µM. The kcat [7] was 5.2 s⁻¹, the Km [8] was 36 µM and the kcat [8] was 10.5 s⁻¹. The Km [9] was 111 µM and the kcat [9] was 5.8 s⁻¹.
